Measurements reported in US20030036699A1, “Methods and systems which use annexin for bioprofiling body lumen” (IMETRx, Inc., priority 2001, published 2003).
Several values for one entry are separate records, joined by “and”; a condition that tells them apart may be missing. Equal entries are not always repeated.

B1: annexin V-^99mTc (protein, UniProt P08758 2-320, looked up)
Annexin A5: AQVLRGTVTDFPGFDERADAETLRKAMKGLGTDEESILTLLTSRSNAQRQEISAAFKTLFGRDLLDDLKSELTGKFEKLIVALMKPSRLYDAYELKHALKGAGTNEKVLTEIIASRTPEELRAIKQVYEEEYGSSLEDDVVGDTSGYYQRMLVVLLQANRDPDAGIDEAQVEQDAQALFQAGELKWGTDEEKFITIFGTRSVSHLRKVFDKYMTISGFQIEETIDRETSGNLEQLLLAVVKSIRSIPAYLAETLYYAMKGAGTDDHTLIRVMVSRSEIDLFNIRKEFRKNFATSLYSMIKGDTSGDYKKALLLLCGEDD
modifications: technetium-99m label
notes: Annexin V, a human protein (36 kD) of 319 amino acids, radiolabeled with technetium-99m as tracer

System: injured iliac vessel (arterial lesions)
Test: Tracer uptake by autoradiography of harvested aorta/iliac in balloon-injured, cholesterol-fed rabbits
Assay type: in vivo, rabbit
Settings: for Figure of Merit (FOM): FOM=3(AUR)(PUR)(PBR); for Peak Uptake Ratio (PUR): peak lesion uptake vs uninjured zone, autoradiograph after single IV tracer dose; for Average Uptake Ratio (AUR): ratio of uptake in injured vs uninjured iliac vessel, autoradiograph about 2.5 h after single IV tracer dose
Method: Twenty-one adult male rabbits (weighing 3-4 kg at the time of tracer administration) were each were fed a high cholesterol, high fat diet for one week. Following one week of feeding, the rabbits were heparinized, anesthetized with ketamine HCI (25 mg/kg, IM) and medetomidine (0.5 mg/kg, IM), and underwent a left carotid arteriotomy. A 3-4F Fogarty catheter was advanced through the arteriotomy under fluoroscopic guidance into the right iliac artery. The Fogarty balloon was inflated with 0.4-0.75 ml of contrast media (to assist with localization by fluoroscopy) and withdrawn to the level of diaphragm. The balloon was deflated, the catheter returned to the distal iliac under fluoroscopic guidance, and the process repeated. There were six repetitions of the procedure. The neck incision was closed, and the animals received Baytril (5 mg IM) for 3 days following surgery to minimize infection. The animals were allowed to recover for four additional weeks while the high fat/high cholesterol diet was continued. The rabbits were divided into seven groups of […] each. On the day of study, a blood sample was drawn to measure lipids (cholesterol), and two groups of three animals received a single tracer dose intravenously via a marginal ear vein. The first group of three rabbits received annexin V-^99mTc.
Two hours after the radiopharmaceutical was administered, the animals were injected with Evans blue to identify the areas of injury an re-endothelialized aorta and iliac vessel. Thirty minutes later, the animals were anesthetized with sodium pentothal (35 mg/kg, IV) and, a thoracotomy and a midline laporotomy incision were performed. The left ventricle was identified, a trocar placed in the chamber, and a cannula placed in the abdominal aorta. The rabbit was partially exsanguinated, followed by infusion of 100 mL lactated Ringer's solution, and subsequently perfused with 0.4% paraformaldehyde (PFA) for about 5 min at about 100 mmHg pressure.
Following euthanasia, the aorta was harvested, photographed (SONY Mavica) and autoradiographed (Molecular Dynamics). An aliquot of blood and an aliquot of the injected dose were included on the plate to permit quantification. The autoradiographs were compared to the Evans Blue stained specimen to determine where the tracer had localized with reference to the injury. A ratio between uptake in the injured and uninjured iliac vessel was determined (average uptake ratio) using analysis option of ‘Image Quest^1.’ Additional ratios were created using the average counts in regions of interest placed over the area with peak uptake on the autoradiograph with each agent, and a ratio of peak uptake to the activity in an aliquot blood were determined.
To simplify the process of integrating the information, a Figure of Merit was calculated, using the formula: […]

Molecule	Figure of Merit (FOM)	activity in injured iliac vessel relative to uninjured site (animals 1 and 3)	Peak Uptake Ratio (PUR)	Average Uptake Ratio (AUR)	localization of tracer on the autoradiograph relative to lesion sites (autoradiograph compared with Evans Blue stained specimen)	Peak to Blood Ratio (PBR) (peak lesion uptake vs activity in an aliquot of blood)
albumin-^125I [reference compound]	14	3 fold	5.1 and 5.2	3.0	–	–
B1	1701	–	15	8.4	striking correlation between lesion sites and localization of annexin	4.5
